In patent publication US20240272170A1 (QUANTUM SI, published 2024):
No end group written: not given here. *: point of attachment. FITC = O=C1OC2(c3ccc(O)cc3Oc3cc(O)ccc32)c2ccc(NC(=S)*)cc21

Assays:
[1] = molecular target: T1, RA peptide (XAKLDEESILKQK-FITC, X = R); assay: fluorescence polarization titration, 20 C
T1 construct: also called peptide with N-terminal arginine
T1 peptide: RAKLDEESILKQK(FITC)
Experimental: (§1) Binding affinity was measured by polarization using a labeled peptide. The polarization response and total intensity measurements were carried out at 20° C. on a microplate fluorometer with 480 nm excitation and 530 nm emission. […] Multiple analyses were performed at increasing recognizer concentration at a fixed concentration of a target peptide to obtain a titration curve. An equilibrium polarization response at each concentration was plotted and fit to calculate the KD.
(§2) Fluorescence polarization assays were performed with all candidates, and single point binding responses were measured at a fixed concentration of the binders (FIG. 13A). […] We carried out multiple polarization binding titration analysis at increasing concentration of binder protein, and the Kds were determined from the titration curves (FIG. 13B).

[2] = molecular target: T2, HA peptide (XAKLDEESILKQK-FITC, X = H); assay: fluorescence polarization titration, 20 C
T2 construct: also called peptide with N-terminal histidine
T2 peptide: HAKLDEESILKQK(FITC)
Experimental: as §1, §2

[3] = molecular target: T1, RA peptide (XAKLDEESILKQK-FITC, X = R); assay: fluorescence polarization titration, PS621 0-5000 nM
Experimental: as §1, §2

[4] = molecular target: T3, second R of YRELRLLK (RLLK); assay: on-chip single-molecule dynamic sequencing, example traces, time axis 0-600 min
T3 construct: also called parent peptide after cleavage to the second arginine
T3 peptide: RLLK
Description: PTM detection involved isolating peptides and subjecting them to a real-time single-molecule protein sequencing reaction. Proteins were first digested into peptide fragments and conjugated C-terminally to macromolecular linkers. The peptide complexes were immobilized at the bottom of nanoscale wells on a semiconductor chip, resulting in single peptide molecules with exposed N-termini ready for sequencing. During the sequencing reaction, the surface-immobilized peptides were exposed to a solution containing dye-labeled NAA recognizers that bound on and off to their cognate NAAs with characteristic kinetic properties. Aminopeptidases in solution sequentially removed individual NAAs to expose subsequent amino acids for recognition. Fluorescence lifetime, intensity, and kinetic data were collected in real time and analyzed to determine amino acid sequence and PTM content.

[5] = molecular target: T4, QP1165 after cleavage to N-terminal arginine (RVWK); assay: on-chip dynamic sequencing of QP1165, PS1875 run, trace Aperture=295010
T4 peptide: RVWK

[6] = molecular target: T4, QP1165 after cleavage to N-terminal …; assay: on-chip dynamic sequencing of QP1165, PS1875 run, trace Aperture=340501
[7] = molecular target: T4, QP1165 after cleavage to N-terminal …; assay: on-chip dynamic sequencing of QP1165, PS2132 run, trace Aperture=376215
[8] = molecular target: T4, QP1165 after cleavage to N-terminal …; assay: on-chip dynamic sequencing of QP1165, PS1875 run, trace Aperture=430641
[9] = molecular target: T4, QP1165 after cleavage to N-terminal …; assay: on-chip dynamic sequencing of QP1165, PS2121 run, trace Aperture=740473
[10] = molecular target: T4, QP1165 after cleavage to N-terminal …; assay: on-chip dynamic sequencing of QP1165, PS2132 run, trace Aperture=1826247
[11] = molecular target: T4, QP1165 after cleavage to N-terminal …; assay: on-chip dynamic sequencing of QP1165, PS1875 run, trace Aperture=1353995
[12] = molecular target: T4, QP1165 after cleavage to N-terminal …; assay: on-chip dynamic sequencing of QP1165, PS2121 run, trace Aperture=1683362
[13] = molecular target: T4, QP1165 after cleavage to N-terminal …; assay: on-chip dynamic sequencing of QP1165, PS1875 run, trace Aperture=1377116
Experimental: (§3) The semiconductor chip was placed in the sequencing device and a chip check was performed to test electronic circuit function and to optimize laser coupling alignment. The chip was then removed from the device socket and the chip was washed twice with 50 μL of 70% isopropanol, followed by four washes with 30 μL of wash buffer (50 mM MOPS pH 8.0, 60 mM potassium acetate, 50 mM glucose, 20 mM magnesium acetate, and surfactant mix) through a flow cell attached to the chip. A second chip check was then performed. The laser was then blocked via an integrated software-controlled shutter, peptide complex was added to a final concentration of 1-10 nM and mixed thoroughly, and the chip was incubated for 15 min. The chip was then washed six times with wash buffer, followed by addition of an imaging solution (wash buffer with 5 mM Trolox and an oxygen scavenging system). The laser was unblocked and the occupancy percentage (target 10-30%, Poisson distributed) was recorded by acquiring a photobleaching signal from a fluorophore attached to the peptide complex during 5 min of laser illumination. […] Data was recorded for 15 min. The laser was then blocked briefly and aminopeptidases were added to the sequencing reaction via the flow cell and mixed thoroughly (final concentration 2-8 μM PhTET2 and/or 20-80 μM PhTET3, as indicated according to the experiment). The laser was then unblocked, and data was recorded for 10 hours. For all runs, 30 μL of mineral oil was added to fluid reservoirs at each port of the flow cell to prevent evaporation during the run.

[14] = molecular target: T4, QP1165 after cleavage to N-terminal …; assay: on-chip dynamic sequencing of QP1165, PS2123 run, trace Aperture=1168773
[15] = molecular target: T4, QP1165 after cleavage to N-terminal …; assay: on-chip dynamic sequencing of QP1165, 500 nM PS1875 plus five recognizers, 7305 alignments
[16] = molecular target: T4, QP1165 after cleavage to N-terminal …; assay: on-chip dynamic sequencing of QP1165, 500 nM PS1875 plus five recognizers, 3369 alignments
[17] = molecular target: T4, QP1165 after cleavage to N-terminal …; assay: on-chip dynamic sequencing of QP1165, 500 nM PS2132 plus five recognizers, 36192 alignments
[18] = molecular target: T4, QP1165 after cleavage to N-terminal …; assay: on-chip dynamic sequencing of QP1165, 500 nM PS2121 plus five recognizers, 15527 alignments
[19] = molecular target: T4, QP1165 after cleavage to N-terminal …; assay: on-chip dynamic sequencing of QP1165, 500 nM PS1875 plus five recognizers, 11565 alignments
Experimental: as §3

[20] = molecular target: T4, QP1165 after cleavage to N-terminal …; assay: on-chip dynamic sequencing of QP1165, 500 nM PS2123 plus five recognizers, 62511 alignments
[21] = molecular target: T5, QP1165 after cleavage to N-terminal alanine (AFLKQRVWK); assay: on-chip dynamic sequencing of QP1165, PS2132 run, trace Aperture=376215
T5 peptide: AFLKQRVWK

[22] = molecular target: T5, QP1165 after cleavage to N-terminal …; assay: on-chip dynamic sequencing of QP1165, PS1875 run, trace Aperture=430641
[23] = molecular target: T5, QP1165 after cleavage to N-terminal …; assay: on-chip dynamic sequencing of QP1165, PS2121 run, trace Aperture=740473
[24] = molecular target: T5, QP1165 after cleavage to N-terminal …; assay: on-chip dynamic sequencing of QP1165, PS2123 run, trace Aperture=501326
[25] = molecular target: T5, QP1165 after cleavage to N-terminal …; assay: on-chip dynamic sequencing of QP1165, PS2132 run, trace Aperture=1826247
[26] = molecular target: T5, QP1165 after cleavage to N-terminal …; assay: on-chip dynamic sequencing of QP1165, PS1875 run, trace Aperture=1353995
[27] = molecular target: T5, QP1165 after cleavage to N-terminal …; assay: on-chip dynamic sequencing of QP1165, PS2121 run, trace Aperture=1683362
[28] = molecular target: T5, QP1165 after cleavage to N-terminal …; assay: on-chip dynamic sequencing of QP1165, PS1875 run, trace Aperture=1311609
[29] = molecular target: T5, QP1165 after cleavage to N-terminal …; assay: on-chip dynamic sequencing of QP1165, PS1875 run, trace Aperture=1377116
Experimental: as §3

[30] = molecular target: T5, QP1165 after cleavage to N-terminal …; assay: on-chip dynamic sequencing of QP1165, PS2123 run, trace Aperture=1168773
[31] = molecular target: T5, QP1165 after cleavage to N-terminal …; assay: on-chip dynamic sequencing of QP1165, 500 nM PS1875 plus five recognizers, 7305 alignments
[32] = molecular target: T5, QP1165 after cleavage to N-terminal …; assay: on-chip dynamic sequencing of QP1165, 500 nM PS1875 plus five recognizers, 3369 alignments
[33] = molecular target: T5, QP1165 after cleavage to N-terminal …; assay: on-chip dynamic sequencing of QP1165, 500 nM PS2132 plus five recognizers, 36192 alignments
[34] = molecular target: T5, QP1165 after cleavage to N-terminal …; assay: on-chip dynamic sequencing of QP1165, 500 nM PS2121 plus five recognizers, 15527 alignments
[35] = molecular target: T5, QP1165 after cleavage to N-terminal …; assay: on-chip dynamic sequencing of QP1165, 500 nM PS1875 plus five recognizers, 11565 alignments
Experimental: as §3

[36] = molecular target: T5, QP1165 after cleavage to N-terminal …; assay: on-chip dynamic sequencing of QP1165, 500 nM PS2123 plus five recognizers, 62511 alignments

B1: PS621 (other)
chain: MHSKFSHAGRICGAKFKVGEPIYRCKECSFDDTCVLCVNCFNPKDHTGHHVYTTICTEFNNGICDCGDKEAWNHTLFCKAEEG
notes: tag of the assay construct not specified; also called UBR protein from Kluyveromyces marxianus
[1]
  Kd: 475 nM
[2]
  Kd: 6.77 µM
[3]
  Kd: 475 nM
[4]
  binding result: binds

B2: PS1220 (designed binder)
single polypeptide, two PS1122 units in tandem: MHSKFSHAGRICGAKFKVGEPIYRCKECSFDDTCVLCVNCFNPKDHLGHHVYTTICTEFNNGECDCGDKTAWNHTLFCKAEEGSAGSAAGSGEFMHSKFSHAGRICGAKFKVGEPIYRCKECSFDDTCVLCVNCFNPKDHLGHHVYTTICTEFNNGECDCGDKTAWNHTLFCKAEEG
notes: also called PS1220 (R); PS1220 (4-CY3B)
[5]
  PD of a recognition segment in an example trace: 0.3 s
[6]
  PD of a recognition segment in an example trace: 0.31 s
[7]
  PD of a recognition segment in an example trace: 0.94 s
[8]
  PD of a recognition segment in an example trace: 0.31 s
[9]
  PD of a recognition segment in an example trace: 0.71 s
[10]
  PD of a recognition segment in an example trace: 0.27 s
[11]
  PD of a recognition segment in an example trace: 0.34 s
[12]
  PD of a recognition segment in an example trace: 0.45 s
[13]
  PD of a recognition segment in an example trace: 0.4 s
[14]
  PD of a recognition segment in an example trace: 0.3 s
[15]
  IPD (interpulse duration): 10.5 s
  PD (pulse duration): 0.43 s
[16]
  IPD (interpulse duration): 9.99 s
  PD (pulse duration): 0.42 s
[17]
  IPD (interpulse duration): 11.1 s
  PD (pulse duration): 0.44 s
[18]
  IPD (interpulse duration): 11.9 s
  PD (pulse duration): 0.46 s
[19]
  IPD (interpulse duration): 10.6 s
  PD (pulse duration): 0.37 s
[20]
  IPD (interpulse duration): 9.74 s
  PD (pulse duration): 0.4 s

B3: PS1587 (designed binder)
single polypeptide, two PS1165 units in tandem: MGLENSLETLRFSISNLSMQTHAARMRTFMYWPSSVPVQPEQLASAGFYYVGRNDDVKCFCCDGGLRCWESGDDPWVEHAKWFPRCEFLIRMKGQEFVDEIQGRYPHLLEQLLSEAAAKEAAAKEAAAKMGLENSLETLRFSISNLSMQTHAARMRTFMYWPSSVPVQPEQLASAGFYYVGRNDDVKCFCCDGGLRCWESGDDPWVEHAKWFPRCEFLIRMKGQEFVDEIQGRYPHLLEQLLSG
notes: also called PS1587 (AST)
[21]
  PD of a recognition segment in an example trace: 0.32 s
[22]
  PD of a recognition segment in an example trace: 0.64 s
[23]
  PD of a recognition segment in an example trace: 0.75 s
[24]
  PD of a recognition segment in an example trace: 0.39 s
[25]
  PD of a recognition segment in an example trace: 0.64 s
[26]
  PD of a recognition segment in an example trace: 0.87 s
[27]
  PD of a recognition segment in an example trace: 2.53 s
[28]
  PD of a recognition segment in an example trace: 1.26 s
[29]
  PD of a recognition segment in an example trace: 0.75 s
[30]
  PD of a recognition segment in an example trace: 0.43 s
[31]
  IPD (interpulse duration): 15 s
  PD (pulse duration): 0.66 s
[32]
  IPD (interpulse duration): 14.7 s
  PD (pulse duration): 0.76 s
[33]
  IPD (interpulse duration): 16.1 s
  PD (pulse duration): 0.62 s
[34]
  IPD (interpulse duration): 16 s
  PD (pulse duration): 0.72 s
[35]
  IPD (interpulse duration): 17.2 s
  PD (pulse duration): 0.72 s
[36]
  IPD (interpulse duration): 17.4 s
  PD (pulse duration): 0.7 s
